This assay has as its target T1, 6His-FIP5 (human, UniProt Q9BXF6 1-653).
T1 sequence (looked up): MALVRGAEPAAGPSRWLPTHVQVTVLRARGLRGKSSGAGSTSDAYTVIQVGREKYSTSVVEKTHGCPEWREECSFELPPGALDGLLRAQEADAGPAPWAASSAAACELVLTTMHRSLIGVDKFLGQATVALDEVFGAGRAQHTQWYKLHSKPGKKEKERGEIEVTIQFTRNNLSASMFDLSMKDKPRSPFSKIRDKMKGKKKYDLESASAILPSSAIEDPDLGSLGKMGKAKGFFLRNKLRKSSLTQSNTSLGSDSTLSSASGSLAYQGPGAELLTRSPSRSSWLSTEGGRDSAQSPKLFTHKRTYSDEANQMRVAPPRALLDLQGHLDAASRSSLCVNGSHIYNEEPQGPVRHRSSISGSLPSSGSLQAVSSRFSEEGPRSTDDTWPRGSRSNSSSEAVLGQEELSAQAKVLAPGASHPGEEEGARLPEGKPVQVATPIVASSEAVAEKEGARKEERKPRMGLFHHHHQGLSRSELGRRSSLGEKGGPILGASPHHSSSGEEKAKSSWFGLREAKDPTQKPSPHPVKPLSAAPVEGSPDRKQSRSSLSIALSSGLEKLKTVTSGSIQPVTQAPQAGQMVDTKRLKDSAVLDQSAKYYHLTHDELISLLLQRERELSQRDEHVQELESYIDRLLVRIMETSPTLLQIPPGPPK
Briefly: ITC. (In general: In ITC the heat of successive injections is recorded.)

B1: GST-SNX18 (natural protein, human, UniProt Q96RF0 1-628, looked up)
chain: MALRARALYDFRSENPGEISLREHEVLSLCSEQDIEGWLEGVNSRGDRGLFPASYVQVIRAPEPGPAGDGGPGAPARYANVPPGGFEPLPVAPPASFKPPPDAFQALLQPQQAPPPSTFQPPGAGFPYGGGALQPSPQQLYGGYQASQGSDDDWDDEWDDSSTVADEPGALGSGAYPDLDGSSSAGVGAAGRYRLSTRSDLSLGSRGGSVPPQHHPSGPKSSATVSRNLNRFSTFVKSGGEAFVLGEASGFVKDGDKLCVVLGPYGPEWQENPYPFQCTIDDPTKQTKFKGMKSYISYKLVPTHTQVPVHRRYKHFDWLYARLAEKFPVISVPHLPEKQATGRFEEDFISKRRKGLIWWMNHMASHPVLAQCDVFQHFLTCPSSTDEKAWKQGKRKAEKDEMVGANFFLTLSTPPAAALDLQEVESKIDGFKCFTKKMDDSALQLNHTANEFARKQVTGFKKEYQKVGQSFRGLSQAFELDQQAFSVGLNQAIAFTGDAYDAIGELFAEQPRQDLDPVMDLLALYQGHLANFPDIIHVQKGKAWPLEQVIWSVLCRLKGATLTAVPLWVSESYSTGEEASRDVDAWVFSLECKLDCSTGSFLLEYLALGNEYSFSKVQRVPLMTVLSF
In general, Kd refers to a measure of binding affinity in units of concentration. Consider B1, for which the Kd is 1560 nM.

Source of the values: paper PMC3187708 (The Journal of Cell Biology, 2011).
